Source: article PMC4627417

Legend:
Assay in all cases: biotin-peptide pull-down, MUDPIT mass spectrometry
SCAF4 = SCAF4 (UniProt O95104)
SCAF8 = SCAF8 (UniProt Q9UPN6)
RPRD2 = RPRD2 (UniProt Q5VT52)
RPRD1B = RPRD1B (UniProt Q9NQG5)
[1] = reference: unphosphorylated CTD peptide, sites S2
[2] = reference: unphosphorylated CTD peptide, sites S5
[3] = reference: unphosphorylated CTD peptide, sites Y1
[4] = reference: pS2-CTD peptide, sites Y1

Substance: RNA polymerase II largest subunit (Rpb1) C-terminal repeated domain (CTD) (from UniProt P24928) pS2-CTD peptide
- other: number of peptides identified (SCAF4; [1]): gained; reference 0
- other: number of peptides identified (SCAF8; [1]): gained; reference 0
- other: number of peptides identified (RPRD2; [1]): gained; reference 0
- other: number of peptides identified (RPRD1B; [1]): gained; reference 0

Substance: RNA polymerase II largest subunit (Rpb1) C-terminal repeated domain (CTD) (from UniProt P24928) pS5-CTD peptide
- other: number of peptides identified (SCAF4; [2]): none in both; reference 0
- other: number of peptides identified (SCAF8; [2]): none in both; reference 0
- other: number of peptides identified (RPRD2; [2]): none in both; reference 0
- other: number of peptides identified (RPRD1B; [2]): none in both; reference 0

Substance: RNA polymerase II largest subunit (Rpb1) C-terminal repeated domain (CTD) (from UniProt P24928) pY1-CTD peptide
- other: number of peptides identified (SCAF4; [3]): none in both; reference 0
- other: number of peptides identified (SCAF8; [3]): none in both; reference 0
- other: number of peptides identified (RPRD2; [3]): none in both; reference 0
- other: number of peptides identified (RPRD1B; [3]): none in both; reference 0

Substance: RNA polymerase II largest subunit (Rpb1) C-terminal repeated domain (CTD) (from UniProt P24928) pY1pS2-CTD peptide
- other: number of peptides identified (SCAF4; [4]): weaker; reference 12
- other: number of peptides identified (SCAF8; [4]): lost; reference 17
- other: number of peptides identified (RPRD2; [4]): weaker; reference 63
- other: number of peptides identified (RPRD1B; [4]): weaker; reference 40
